Data as given in publication PMC4018254, “Bacterial Magnetosome Biomineralization - A Novel Platform to Study Molecular Mechanisms of Human CDF-Related Type-II Diabetes” (PLoS ONE, 2014).
Positions count from the first letter of the chain named. Names may count otherwise.

B1: MamM-CTD (cytosolic C-terminal domain of the magnetosome CDF transporter MamM), wild type (domain or fragment, Magnetospirillum gryphiswaldense)
chain: EAVQNRIVEAAERVPGVRGVIHLRARYVGQDIWADMIIGVDPENTVEQAHEICEAVQAAVCGKIRRIESLHVSAEAREIGDTTKPSFSDQPLSFDEVMLSKVDN
notes: MamM, cation diffusion facilitator of Magnetospirillum gryphiswaldense, cytosolic C-terminal domain (CTD); also called wild-type MamM-CTD; apo-MamM-CTD; source: recombinant, purified; expression and purification 'performed as previously described [20], [29], [30]'
B2: MamM-CTD V260R mutant (domain or fragment, Magnetospirillum gryphiswaldense)
chain: B1 chain with V46R
notes: MamM, cation diffusion facilitator of Magnetospirillum gryphiswaldense, cytosolic C-terminal domain (CTD) with V260R; The mutation mimics the R325 allele of human ZnT-8; source: recombinant, purified; expression, purification and site-directed mutagenesis 'performed as previously described [20], [29], [30]'
B3: MamM-CTD V260W mutant (domain or fragment, Magnetospirillum gryphiswaldense)
chain: B1 chain with V46W
notes: MamM, cation diffusion facilitator of Magnetospirillum gryphiswaldense, cytosolic C-terminal domain (CTD) with V260W; The mutation mimics the W325 allele of human ZnT-8; source: recombinant, purified; expression, purification and site-directed mutagenesis 'performed as previously described [20], [29], [30]'

Biological target: the molecule itself
Experiment: SEC; Superdex200; elution volumes of the mutants compared with wild-type MamM-CTD; self-association (dimer)

Protein	stoichiometry N
B1	2
B2	2
B3	2
